Results published in PMC9536601.

Tests used:
[1] = molecular target: hexon of the Ad5 vector Ad5.10 (Ad5 hexon with HVR1 of Ad6 hexon, on virions) (human adenovirus 5) (UniProt P04133); assay: SPR; Biacore T200; about 300 to 5,000 RU of Ad virions immobilised on a CM5 chip, coagulation factors flowed over at four concentrations, 50 uL/min; running buffer 10 mM HEPES, 150 mM NaCl, 1 mM CaCl2, 0.5 mM MgCl2, 0.1% BSA, 0.05% polysorbate 20, pH 7.4; regeneration with 3 mM EDTA; global fit to a 1:1 kinetic interaction model, double referencing
[2] = molecular target: hexon of the Ad5 vector Ad5.5 (on virions) (human adenovirus 5) (UniProt P04133); assay: as above
[3] = molecular target: chimeric hexon of the Ad5 vector Ad5:H1.2 (Ad1 hexon section with HVR7 mutations, on virions) (human adenovirus 5 | human adenovirus 1) (UniProt P04133); assay: as above
[4] = molecular target: hexon of the Ad5 vector Ad5.6 (on virions) (human adenovirus 5) (UniProt P04133); assay: as above
[5] = molecular target: chimeric hexon of the Ad5 vector Ad5:H6.1 (Ad5 hexon with residues 112-593 from Ad6 hexon, on virions) (human adenovirus 5 | human adenovirus 6) (UniProt P04133); assay: as above
[6] = molecular target: hexon of Ad5.10 (Ad5 vector, hexon HVR1 replaced with the HVR1 of Ad6 hexon), on the virion (human adenovirus type 5) (UniProt P04133); assay: SPR; Biacore T200; about 300 to 5,000 RU of Ad virions immobilised on a CM5 chip, coagulation factors flowed over at four concentrations, 50 uL/min; 10 mM HEPES, 150 mM NaCl, 1 mM CaCl2, 0.5 mM MgCl2, 0.1% BSA, 0.05% polysorbate 20, pH 7.4; global fit to a 1:1 kinetic interaction model, double referencing
[7] = molecular target: chimeric hexon of Ad5:H1.2 (Ad5 vector, hexon residues 112-593 from Ad1 hexon, HVR7 IGVTRTY), on the virion (human adenovirus type 5 | human adenovirus type 1) (UniProt P04133); assay: as above
[8] = molecular target: chimeric hexon of Ad5:H6.1 (Ad5 vector, hexon residues 112-593 from Ad6 hexon), on the virion (human adenovirus type 5 | human adenovirus type 6) (UniProt P04133); assay: as above
[9] = molecular target: chimeric hexon of Ad5:H57.1 (Ad5 vector, hexon residues 112-593 from Ad57 hexon), on the virion (human adenovirus type 5 | human adenovirus type 57) (UniProt P04133); assay: as above
[10] = molecular target: chimeric hexon of Ad5:H1.1 (Ad5 vector, hexon residues 112-593 from Ad1 hexon), on the virion (human adenovirus type 5 | human adenovirus type 1) (UniProt P04133); assay: as above

Substance | Kd [1] [nM] | koff [1] [s⁻¹] | kon [1] [M⁻¹ s⁻¹] | Kd [2] [nM] | koff [2] [s⁻¹] | kon [2] [M⁻¹ s⁻¹] | Kd [3] [nM] | koff [3] [s⁻¹] | kon [3] [M⁻¹ s⁻¹] | Kd [4] [nM] | koff [4] [s⁻¹] | kon [4] [M⁻¹ s⁻¹] | Kd [5] [nM] | koff [5] [s⁻¹] | kon [5] [M⁻¹ s⁻¹] | Kd [6] [nM] | Kd [7] [nM] | Kd [8] [nM] | Kd [9] [nM] | Kd [10] [nM]
human coagulation factor X (from UniProt P00742 41-488) (natural protein) | 1.1 | 0.000122 | 112000 | 5.2 | 0.000661 | 126000 | 650 | 0.0631 | 97200 | 0.94 | 0.000127 | 135000 | 43 | 0.00914 | 214000 | 1.1 | 650 | 43 | 58 | 300
bovine coagulation factor X (from UniProt P00743 41-492) (natural protein) | 276 | 0.151 | 549000 | 438 | 0.169 | 387000 | 1100 | 0.085 | 77400 | 1620 | 0.167 | 104000 | 97 | 0.0132 | 135000 | 276 | 1100 | 97 | 28 | 220
mouse prothrombin (coagulation factor II) (from UniProt P19221 44-618) (natural protein) | 356 | 0.06 | 168000 | 216 | 0.0676 | 314000 | 1300 | 0.0483 | 36800 | 420 | 0.026 | 62400 | 8.6 | 0.000535 | 62200 | 356 | 1300 | 8.6 | 10 | 16
mouse coagulation factor X (from UniProt O88947 41-481) (natural protein) | 0.58 | 0.00014 | 240000 | 2.5 | 0.00104 | 416000 | 5 | 0.00084 | 169000 | 0.37 | 0.000115 | 310000 | 0.31 | 3.78e-05 | 122000 | 0.58 | 5 | 0.31 | 0.65 | 0.82
